{
  "source": "the DeepSol protein solubility set",
  "data": [
    {"assay": "soluble on expression in E. coli; label from the status in PepcDB or PDB records", "values": [
      {"sequence": "MATLDKFLSIKENDEKTKKKESKKKSSKSNKTSESLVSHDHFELTPEFENQLWKVADKLRKKMEVHQYKYVVLGLIFLRALTCRFYERRKEIEEELSNPNSELYTEDPELRKMILEDEDFYLSEGVLYLPKETRWDYFVENVMSPNIGEIIDTAIEILEEKYPDRLKDVIPKIYAQSPLDNHDYSYLINKFSEISFGKEHRVKDVFGRIYEYFLGKFTEVEGKLGGKFYTPRSLTKLIVDVLDVKGGSIFDPACGSGGFFVSALEKLEREGIDINELSIYGQDSDPMAYRLTKMNLIIRGAEGDIRIDDSYHDDKFMDMTFDYVVANPPFNDSEWDANRIKPDDPRLRIGNKKVPVPPNGNANYMWILHFIYHTAPNGKAGFVMANGALSAGNVEGEIRKAIIENDLVYGIVACPPKLFYNVSLPVSLWFIRKEKPDYMKGKVLFINAKNLYKQISRRQNILTEEHIKKIVDKFRMFESGEDEDKINELGFAKVATIDEIAKNGYVLTPGRYVGVKIEDDGIPFEVKMKEYSEELKKLLDEEEKLRNKVKEILDALGF", "soluble on expression in E. coli": "soluble"},
      {"sequence": "MATNAKPVYKRILLKLSGEALQGTEGFGIDASILDRMAQEIKELVELGIQVGVVIGGGNLFRGAGLAKAGMNRVVGDHMGMLATVMNGLAMRDALHRAYVNARLMSAIPLNGVCDNYSWAEAISLLRNNRVVILSAGTGNPFFTTDSAACLRGIEIEADVVLKATKVDGVFTADPAKDPSATMYDQLTYSEVLDKELKVMDLAAFTLARDHKLPIRVFNMNKPGALRRVVMGEKEGTLITELEHHHHHH", "soluble on expression in E. coli": "not soluble"},
      {"sequence": "MATPDLTIRGGGIFGLAVAWAAVRRGAKVRLIESARIGAGSSGGVVGALSPHVPEQWNEKKAFQFESLAMGEAWWAAVADASGLPTGYDRLGRFQPLADARAVDHARARAEEARTLWQGRFSWEVVPAGGDFMPESPTGLVIHDTLTARLNPRLAVPALVQAIRAQGGEILIGEGEEAGPVVWATGVAGLEALSQDLGKPVGNGVKGQAMVVALDARDRPQVFGPGLLIVPHADGTTAVGSTAEKDWTAPDTTDAQLDEVHARAVALCPWLEGAPVLTRWAGLRPRARSLAPMLGEWPGRPGQYVANGGFKIGFGMAPKVGEVMAALVLEGRDEIPESFRVEASLKKKGKAEELEHHHHHH", "soluble on expression in E. coli": "not soluble"},
      {"sequence": "MATSGTYVTEVPLKGSAKNHYKRWKSENQLFPDAIGHHIQGVTVHEGDWDSHGAIKSWNYTCDGKQEVFKEKRELDDQKMAVTFRGLDGHVMEQLKVYDVIFQFVPKSQEGCVCKVTMFWEKRYEDSPEPIKYMKFVTSLAADMDDHILKNQSKA", "soluble on expression in E. coli": "soluble"},
      {"sequence": "MATSKILLYYAFTPLSDPKAVQLWQRELCESLNLRGRILISTHGINGTVGGDIDDCKAYIKKTREYPGFNRMQFKWSEGGAEDFPKLSVKVRDEIVAFGAPDELKVDENGVVGGGVHLKPQQVNELVEARGDEVVFFDGRNAMEAQIGKFKDAVVPDVETTHDFIAEIESGKYDDLKDKPVVTYCTGGIRCEILSSLMINRGFKEVYQIDGGIVRYGEQFGNKGLWEGSLYVFDKRMHMEFGEDYKEVGHCIHCDTPTNKFEHCLNEDDCRELVLMCPDCFANVETRHCKRERCAAIAADFAEQGIDPLVTSLEHHHHHH", "soluble on expression in E. coli": "soluble"},
      {"sequence": "MATVNKQAIAAAFGRAAAHYEQHADLQRQSADALLAMLPQRKYTHVLDAGCGPGWMSRHWRERHAQVTALDLSPPMLVQARQKDAADHYLAGDIESLPLATATFDLAWSNLAVQWCGNLSTALRELYRVVRPKGVVAFTTLVQGSLPELHQAWQAVDERPHANRFLPPDEIEQSLNGVHYQHHIQPITLWFDDALSAMRSLKGIGATHLHEGRDPRILTRSQLQRLQLAWPQQQGRYPLTYHLFLGVIARE", "soluble on expression in E. coli": "not soluble"},
      {"sequence": "MAVAMDNAILENILRQVRPLIGQGKVADYIPALATVDGSRLGIAICTVDGQLFQAGDAQERFSIQSISKVLSLVVAMRHYSEEEIWQRVGKDPSGSPFNSLVQLEMEQGIPRNPFINAGALVVCDMLQGRLSAPRQRMLEVVRGLSGVSDISYDTVVARSEFEHSARNAAIAWLMKSFGNFHHDVTTVLQNYFHYCALKMSCVELARTFVFLANQGKAIHIDEPVVTPMQARQINALMATSGMYQNAGEFAWRVGLPAKSGVGGGIVAIVPHEMAIAVWSPELDDAGNSLAGIAVLEQLTKQLGRSVY", "soluble on expression in E. coli": "soluble"},
      {"sequence": "MAVDMFIKIGDVKGESKDKTHAEEIDVLAWSWGMSQSGSMHMGGGGGAGKVNVQDLSFTKYIDKSTPNLMMACSSGKHYPQAKLTIRKAGGENQVEYLIITLKEVLVSSVSTGGSGGEDRLTENVTLNFAQVQVDYQPQKADGAKDGGPVKYGWNIRQNVQA", "soluble on expression in E. coli": "soluble"},
      {"sequence": "MAVGEVMRMEIPAGGDLTVTTPELHVLAVDDSIVDRKVIERLLRISSCKVTTVESGTRALQYLGLDGGKGASNLKDLKVNLIVTDYSMPGLSGYDLLKKIKESSAFREVPVVIMSSENILPRIQECLKEGAEEFLLKPVKLADVKRIKQLIMRNEAEECKILSHSNKRKLQEDSDTSSSSHDDTSIKDSSCSKRMKSESENLFSLL", "soluble on expression in E. coli": "not soluble"},
      {"sequence": "MAVLYLVGTPIGNLADITYRAVDVLKRVDMIACEDTRVTSKLCNHYDIPTPLKSYHEHNKDKQTAFIIEQLELGLDVALVSDAGLPLISDPGYELVVAAREANIKVETVPGPNAGLTALMASGLPSYVYTFLGFLPRKEKEKSAVLEQRMHENSTLIIYESPHRVTDTLKTIAKIDATRQVSLGRELTKKFEQIVTDDVTQLQALIQQGDVPLKGEFVILIEGAKANNEISWFDDLSINEHVDHYIQTSQMKPKQAIKKVAEERQLKTNEVYNIYHQIS", "soluble on expression in E. coli": "not soluble"},
      {"sequence": "MAVPPTYADLGKSARDVFNKGYGFGLVKLEVKTKSSSGVEFTSSGSSNTDTGKASGNLETKYKMKETGLTFTQKWNTDNTLGTEVALEDKLAKGLKLSLDTTFVPNTGKKSAKLKTSYKRDYANLGIDIDLDLAGPTIYGWGVLGYQGWLAGYQMAFDTAKSRLAQNNFALGYTAGDFQLHTNVNDGTEFGGSVYQKVSKDVETSVSLAWSAGSNNTRFGIGAKYQLDSNTTISAKVNNASLIGVGYTQTLRPGVKLTLSALVNGKNFSAGGHKVGLGFELEA", "soluble on expression in E. coli": "not soluble"},
      {"sequence": "MAVRVCCHAPPGVSNHLFTFCAGNLTTGFSGGSVTSQKGGAAGLPTCSRRCPRGCLPGSDPLPRHPRRYAPPVTPPVTPPTTPAPRSRARMLELVFPKDTNYHGTAFGGWVLALMDKAASVAAVRHAGGNVVTARMDGVDFHVPIRVGDAVALDARVIRVGRSSMTIRVDVYRENMASGEQQLATGGLFTFVALGEDGKPRPVPPLPEGSTDSEQPDYEARPLEHHHHHH", "soluble on expression in E. coli": "not soluble"},
      {"sequence": "MAVSEIKATMKLKPLKAPVFHKRDKDLRGSFSDHLKHKESKLSPAQLEAFRNAYNFFTKDRTGCIDSHGLISTIAKLGMNLNTYDIYNELKCADLDRDGKINFSDFINVLTDKKLFLKAVVPEKKICLDLANNPGILLFEILSKFVETSSLHRKDIIELVSYFRKRFQESHSEIMWSSYGRRGLKSEICSPPRSSTAAFANSARISIMKERDLYKFLEALKRCNLRTDSPYSKIPVFPLFPDVDGTVMGKPFKDTQKIEMLRRKEPLTFFEDYFFNKRDWKTQAMNVKPLKSASGYSDDILAIDHLFKKKQHWTVTDAAAIKQHVKKATESYNLGIALDHRKEMLNLWKKIRGDLVGIESNNESFYNTFSTYTWSWNVCQELLSAKDLRLHDASMNKSSPSNSGLSSPSDFSESDPETGRKRKRKSSRGFRQ", "soluble on expression in E. coli": "not soluble"},
      {"sequence": "MAVYANTSVQDFYEFWLEEVKKKSLSYNSYYSFKKTVQNYILPLYGRLSMGKLRKNHVKRIYKKTYETSPSVAKIVKTVLTTSFKYALRYGYVEEDYVTGLKWNRVILEHHHHHH", "soluble on expression in E. coli": "not soluble"},
      {"sequence": "MAVYLDFENHIKEIQNEIELALIRGDEDAKEILEKRLDKEVKSIYSNLTDFQKLQLARHPDRPYAMDYIDLILKDKYEVFGDRHYNDDKAIVCFVGKIDNVPVVVIGEEKGRGTKNKLLRNFGMPNPCGYR", "soluble on expression in E. coli": "not soluble"},
      {"sequence": "MAWALPAQAEQLIYGFQAEQLEYRQGDSEDSFVWDFDALIGTDELKLVWRSEGERVQGAGGFETLENQLRLQFPVSTFFDAVVGVQASTPDGLPDRYNAVLGLKGLAPQWFEIDADLYLSDNSFFRFEGEYEAMLTNRLTLTPSLELTLPLQDDPIYNQAAGGVTLEAGLRLSYDLIDRAVSPYIGVNYERSYGGTADMIRAAGDENGAFSVVFGTRLMFLEHHHHHH", "soluble on expression in E. coli": "not soluble"},
      {"sequence": "MAWMEVRGKRFEILVRPELAFRYKEKGDVDLEDVLWTDTIYRDVRKGLKASPEEVKKAFGTSDPRRVAEKILKEGEIQLTEEQRRRLLEAKRRQIISYIARNAIDPTTGRPIPEARIEAALEEVRFPINLWRDAESQAVEAVRLIARVMPIRLARALLEVKIPPPHSGRAYQALMRMGEVKKADWLPDGSLKAELEIPAGAQVEVTSRIQALARGAAEVKVKKVAAAAAAALEHHHHHH", "soluble on expression in E. coli": "soluble"},
      {"sequence": "MAYELPELPYAYDALEPHIDKETMTIHHTKHHNTYVTNLNKAVEGNTALANKSVEELVADLDSVPENIRTAVRNNGGGHANHKLFWTLLSPNGGGEPTGALAEEINSVFGSFDKFKEQFAAAAAGRFGSGWAWLVVNNGKLEITSTPNQDSPLSEGKTPILGLDVWEHAYYLNYQNRRPDYISAFWNVVNWDEVARLYSERK", "soluble on expression in E. coli": "soluble"},
      {"sequence": "MAYTLATHTAGVIPAGKLERVDPTTVRQEGPWADPAQAVVQTGPNQYTVYVLAFAFGYQPNPIEVPQGAEIVFKITSPDVIHGFHVEGTNINVEVLPGEVSTVRYTFKRPGEYRIICNQYCGLGHQNMFGTIVVKE", "soluble on expression in E. coli": "soluble"},
      {"sequence": "MAYVGDDLIDWPVMEKVGLSVAVADAHPLLIPRADYVTRIAGGRGAVREVCDLLLLAQGKLDEAKGQSI", "soluble on expression in E. coli": "not soluble"},
      {"sequence": "MCENTLAQQKTEEFAPVSDLRAEAYGSTVFLHWTPPYDNPMIPLSESFESGIPAIWKTIDADGDGYNWMHLTNFTGQSGLCVSSASYIGGVGALTPDNYLITPELKLPTDALVEIIYWVCTQDLTAPSEHYAVYSSSTGNNAADFVNLLYEETLTAKRIQSPELIRGNRTQGVWYQRKVVLPNDTKYVAFRHFNSTDNFWLNLDEVSILYTPLPRRAPCPHPGGYTYSVFRDGQKIASGLSALAYIDTDVPYGTQDYCVQVNYLQGDSYKVCKNIVVANSANIYGADKPFALTVVGKTIVASAFKGEITLYDIRGRLIASGCDTLRYKAENGFYLIKIQVNGTVYTEKIQIQ", "soluble on expression in E. coli": "not soluble"},
      {"sequence": "MCGITGWVDWKEDLSNQHVILKKMANRIQHRGPDAEGFWFSPRAAFAHRRLIVIDPEGGAQPKTFRAGDYTYALTYNGEIYNFRELREQLQKCGHTFETHSDTEVLLHAYLEWKEDCVQHLNGIFAFALWDDQKQRLFLARDHLGVKPLFYTERNDSIIFGSEIKALLAHPSVPAEIDADGINEIFGLGLFRTPGCGVFKHIEEVRAGHSITFTRDKKVVTKYWNLESKVHTDSIEDTSSHILSILQDTVKRQLIADVPLVCMLSGGLDSSGITALAGKEFAAENKTLHTYSVDFVNSAKDFELTFARTGLDAPWVKRVSEHVGTSHHDIIVNAEELANHLFVPLRAKDLPSAGEMETSLYLLFCEMKKDATVALSGESADEVFGGYPWFHQEELLYVDKFPWLTNWKNTSPLLLHEISNQCNLENYIDTRFQEAILEVPTLEGESKKSAKQRQMFYLFLTRFLPFLLDRKDRMSMAVGFEVRVPFCDYRLVEYLWNVPFNIKSIDNIEKGILRRALKPALPDDVRNRRKSAYPTSQDPQYLQTIRHLSLDMCSNKNNPIFSLINHSTLLAIADGSNKEINNFEARSAMEYMLQVNEWLKTYHIHIA", "soluble on expression in E. coli": "not soluble"},
      {"sequence": "MCGRIAQKSAPEDYVEILWPNARLIFDDVAGPRYNIPPGTRPLTMHRLVDQAEALARLPWGYKPHGSRFFMVNAKLETIERHGWPWKLMIGVGRILVPADGWYEWRALDSGPKPAKQSYYIHGDAPLLFAGLSAWRRGAELDEAHGFAIVTNDALGGMVDVHDRRPVALPPELAREWVDPATPVARAKEILRAGLPETAFSWYPVRQEVGSSKYQLPDAVDPLLEHHHHHH", "soluble on expression in E. coli": "not soluble"}
    ]}
  ]
}
